Data as given in PMC5290277, “Specialized interfaces of Smc5/6 control hinge stability and DNA association”.

T1: Smc5 hinge (extended-hinge);Smc6 hinge F528A (Schizosaccharomyces …, UniProt O13710;P53692 364-692;462-773, |F528A)
T1 sequence 1: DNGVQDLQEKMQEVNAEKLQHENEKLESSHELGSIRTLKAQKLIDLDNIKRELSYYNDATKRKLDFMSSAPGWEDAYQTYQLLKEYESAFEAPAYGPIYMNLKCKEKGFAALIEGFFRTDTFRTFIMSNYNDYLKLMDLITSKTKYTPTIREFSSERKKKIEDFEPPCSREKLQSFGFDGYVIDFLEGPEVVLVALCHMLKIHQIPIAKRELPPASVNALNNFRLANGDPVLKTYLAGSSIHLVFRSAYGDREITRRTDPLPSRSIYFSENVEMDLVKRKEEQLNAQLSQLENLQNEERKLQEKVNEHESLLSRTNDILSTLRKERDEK
T1 sequence 2: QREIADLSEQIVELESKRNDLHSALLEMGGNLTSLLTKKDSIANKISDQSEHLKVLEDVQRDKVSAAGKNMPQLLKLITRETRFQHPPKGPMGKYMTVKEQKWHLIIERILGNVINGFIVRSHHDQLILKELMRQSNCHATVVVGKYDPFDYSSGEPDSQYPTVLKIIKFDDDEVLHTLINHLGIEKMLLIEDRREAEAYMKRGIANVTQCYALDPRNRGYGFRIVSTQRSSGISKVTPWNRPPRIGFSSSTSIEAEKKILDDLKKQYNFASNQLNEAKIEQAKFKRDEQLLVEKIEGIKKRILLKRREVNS

T2: Smc5 hinge (extended-hinge);Smc6 hinge R706C (Schizosaccharomyces …, UniProt O13710;P53692 364-692;462-773, |R706C)
T2 sequence 1: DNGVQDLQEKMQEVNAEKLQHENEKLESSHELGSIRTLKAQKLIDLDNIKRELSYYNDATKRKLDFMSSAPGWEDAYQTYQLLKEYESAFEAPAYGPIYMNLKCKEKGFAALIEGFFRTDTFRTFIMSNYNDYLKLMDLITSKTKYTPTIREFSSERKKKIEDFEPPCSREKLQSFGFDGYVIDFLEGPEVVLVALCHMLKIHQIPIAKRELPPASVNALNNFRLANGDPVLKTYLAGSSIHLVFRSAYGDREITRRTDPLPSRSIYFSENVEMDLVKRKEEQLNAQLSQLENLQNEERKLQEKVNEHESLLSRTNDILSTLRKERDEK
T2 sequence 2: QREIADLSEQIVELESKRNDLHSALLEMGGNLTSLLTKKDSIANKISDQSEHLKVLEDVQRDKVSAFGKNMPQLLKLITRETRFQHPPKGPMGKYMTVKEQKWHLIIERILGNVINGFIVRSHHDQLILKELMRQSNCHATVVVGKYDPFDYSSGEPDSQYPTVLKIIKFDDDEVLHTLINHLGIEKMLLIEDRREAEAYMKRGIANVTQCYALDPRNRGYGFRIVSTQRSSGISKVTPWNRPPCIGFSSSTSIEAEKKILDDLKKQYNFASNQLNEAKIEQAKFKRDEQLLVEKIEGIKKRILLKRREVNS

T3: Smc5 hinge Y612A;Smc6 hinge (extended-hinge) (Schizosaccharomyces …, UniProt O13710;P53692 364-692;462-773, Y612A|)
T3 sequence 1: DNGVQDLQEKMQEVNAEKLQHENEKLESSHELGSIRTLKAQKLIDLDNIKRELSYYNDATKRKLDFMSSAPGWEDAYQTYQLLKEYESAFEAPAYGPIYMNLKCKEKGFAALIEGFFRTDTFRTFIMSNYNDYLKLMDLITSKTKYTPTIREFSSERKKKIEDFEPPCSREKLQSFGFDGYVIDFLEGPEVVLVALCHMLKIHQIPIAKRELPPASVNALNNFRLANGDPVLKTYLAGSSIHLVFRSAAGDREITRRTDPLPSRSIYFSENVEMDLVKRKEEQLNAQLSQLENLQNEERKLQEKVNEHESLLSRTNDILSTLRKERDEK
T3 sequence 2: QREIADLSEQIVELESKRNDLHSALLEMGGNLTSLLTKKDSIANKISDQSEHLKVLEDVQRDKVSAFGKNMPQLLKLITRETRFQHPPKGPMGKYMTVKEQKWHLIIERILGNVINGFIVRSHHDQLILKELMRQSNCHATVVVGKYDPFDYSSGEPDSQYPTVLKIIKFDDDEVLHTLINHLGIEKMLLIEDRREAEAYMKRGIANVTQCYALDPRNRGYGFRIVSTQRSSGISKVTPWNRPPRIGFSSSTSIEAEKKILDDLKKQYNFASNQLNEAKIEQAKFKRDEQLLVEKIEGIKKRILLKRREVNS

T4: Smc5 hinge (extended-hinge);Smc6 hinge (extended-hinge) (Schizosaccharomyces …, UniProt O13710;P53692 364-692;462-773, |)
T4 sequence 1: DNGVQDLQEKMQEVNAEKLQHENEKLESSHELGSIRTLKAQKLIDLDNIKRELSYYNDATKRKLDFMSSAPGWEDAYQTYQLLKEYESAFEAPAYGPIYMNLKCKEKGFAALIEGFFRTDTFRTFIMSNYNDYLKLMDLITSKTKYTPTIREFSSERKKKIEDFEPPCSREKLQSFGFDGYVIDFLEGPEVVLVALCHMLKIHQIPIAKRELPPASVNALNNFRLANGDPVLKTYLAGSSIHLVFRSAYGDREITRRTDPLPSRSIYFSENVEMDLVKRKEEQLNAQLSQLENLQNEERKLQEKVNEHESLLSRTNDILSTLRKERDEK
T4 sequence 2: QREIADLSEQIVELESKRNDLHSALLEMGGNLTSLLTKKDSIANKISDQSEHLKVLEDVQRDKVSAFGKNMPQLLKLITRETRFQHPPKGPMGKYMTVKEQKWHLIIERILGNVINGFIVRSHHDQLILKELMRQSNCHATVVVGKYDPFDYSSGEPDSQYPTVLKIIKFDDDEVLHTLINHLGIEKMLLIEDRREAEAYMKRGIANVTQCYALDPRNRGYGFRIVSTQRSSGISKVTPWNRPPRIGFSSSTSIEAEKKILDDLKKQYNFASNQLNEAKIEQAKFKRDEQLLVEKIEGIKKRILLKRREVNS


Tests used:
[1] = molecular target: T1, Smc5 hinge (extended-hinge);Smc6 hinge …; experiment: fluorescence polarization; 20 mM HEPES.NaOH pH 7.5, 100 mM NaCl, 1 mM EDTA, 0.5 mM TCEP, room temperature 10 min, 100 nM DNA (FP, EMSA); pull-down same buffer, protein incubation 4 C 30 min; switchSENSE buffer not given; conditions: protein: recombinant;recombinant, tags: N-terminal His6, HRV-3C cleaved;N-terminal StrepII, copies: 1;1, label: 5' fluorescein, single strand
[2] = molecular target: T2, Smc5 hinge (extended-hinge);Smc6 hinge …; experiment: as above; conditions: protein: recombinant;recombinant, tags: N-terminal His6, HRV-3C cleaved;N-terminal StrepII, copies: 1;1, label: 5' fluorescein, single strand
[3] = molecular target: T3, Smc5 hinge Y612A;Smc6 hinge …; experiment: as above; conditions: protein: recombinant;recombinant, tags: N-terminal His6, HRV-3C cleaved;N-terminal StrepII, copies: 1;1, label: 5' fluorescein, single strand
[4] = molecular target: T4, Smc5 hinge (extended-hinge);Smc6 hinge …; experiment: as above; conditions: protein: recombinant;recombinant, tags: N-terminal His6, HRV-3C cleaved;N-terminal StrepII, copies: 1;1, label: 5' fluorescein, single strand
[5] = molecular target: T4, Smc5 hinge (extended-hinge);Smc6 hinge …; experiment: switchSENSE; biphasic association and dissociation; 20 mM HEPES.NaOH pH 7.5, 100 mM NaCl, 1 mM EDTA, 0.5 mM TCEP, room temperature 10 min, 100 nM DNA (FP, EMSA); pull-down same buffer, protein incubation 4 C 30 min; switchSENSE buffer not given; conditions: protein: recombinant;recombinant, tags: N-terminal His6, HRV-3C cleaved;N-terminal StrepII, copies: 1;1, label: 3' Cy3, single strand, immobilized on gold

Binder | Kd [1] | Kd [2] | Kd [3] | Kd [4] | binding result [5]
GCTCGTCTGGCTCTG (ssDNA) [15mer] | ~1700 nM | ~1600 nM | ~1300 nM | ~1200 nM | –
GTGTGAACCCTCCAACAAAGGTAGCATTTGCCAGCTCTCGTGATGCAG (ssDNA, 5' HS-(CH2)6 thiol linker) [switchSENSE 48mer] | – | – | – | – | binds
